In the nanobody polyreactivity screen of Harvey et al. (2022):

experiment: yeast display, Sf9 membrane polyspecificity reagent, FACS + sequencing; frameworks hold sequencing errors
In short: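 A nanobody's polyreactivity label depends on the gate it was sorted from. Yeast display cells were stained with 10% biotinylated, detergent-solubilized Sf9 membrane reagent for 1 hour at 4 °C, enriched on streptavidin microbeads and sorted by FACS. The low and high (top ~1%) gates were set on anti-HA fluorescence for expression and streptavidin fluorescence for reagent binding.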

| Sequence | polyreactivity (PSR sort gate) |
| --- | --- |
| QVQLLESGGGLVQAGGSLRLSCAASGRTFRYYTMGWYRQAPGKEREFVDAISSTGGTYYADSVKGRFTISRDNAKNTVYLQMNCLKPEDTAVYYCAATFIQVVVNVQLYDYDYWGQGTQVTVSS | low polyreactivity |
| QVQLVESGGGLVQAGGSLRLSCAASARIFGWNSMGWYRQAPGKERELVAAISWRGGSTYYADSVKGRFTISRDNAKNTVYLQMNSLKPEDTAVYYCNALYTRYVSQWFGYWGEGTQVTVSS | high polyreactivity |
| QVQLVESGGGLVQAGGSLRLSCAASGFIFWLNAMGWYRQAPGKERELVAASSIGGRTNYADSVKGRFTISRDNAKNTVYLQMNSLKPDDTAVYYCNKDYRSVYKGRGFDYCGQGTQVTVSS | low polyreactivity |
| QVQLVESGGGLVQAGGSLRLICAASGGTFQSNAMGWYRQAPGKERELVASITSRGSSTYYADSVKGRFTISRDNAKNTVYLLMNSLKPEDTAVYYCAKGRSWQIYYKGGIKGGYWGQGTQVTVSS | low polyreactivity |
| QVQIVESGGGLVQAGGSLRLSCAASGSIFYYYAMGWYRQAPGNERELVADISISGGSTYYADSVKGRFTISRDTAKNTVYLQMNSQKPEDTAVYYSAATSTYRSYLEYDYWGQGTQVTVSS | low polyreactivity |
| QVQLVESGGGLVQAGGSLRLSCAASGRIFGGYAMGWYRQAPGKERELVAAISSGGNTKYADSVKGRFTISRDNAKNTVYLQMNSLKPEDTAVYYCAAKFAQPYYRYDYWGQGTQVTVSS | high polyreactivity |
| QVQLVESGGGLVQAGGSLRLSCAASGSTFHSYAIGWYRQAPGKEREFVAAITIRGGSTYYADSVKGRITISRDNAKNTVYLQMNSLKPEDNAVYYCAALVWGSYARWRYYCGQGTQVTVSS | high polyreactivity |
| QVQLQESGGGLLQECGSQRLSCAASGSISEGQDMGWYRRAPGKEREFVAGIAPGATTYYADSVKGRFTISRDNAKNTVYLQMNSLNPEDTAVYYCAARYVTESDHDYWGQVTQVTVSS | low polyreactivity |
| QVQLVESGGGLVQAGGSLRLSCAASGSIFTKYAMGWYRQAPGKERELVAGISRTTGSTYYADSVKGRFTISRDNAKNTVYLQMNSLKPEDTAVSYCNAVYGHGNYFRSEDDYWGQGTQVTVSS | high polyreactivity |
| QGQLVESGGGLVQAGGSLRLSCAASGRTLQYNAMGWYRPAPGKEWELVAAITSNGGSTYYADSVKGRFPISRDNAKNTVYLQMNSQKPEDTAVYDCAKAYRYVDRGYRLLRYGYWGQGNQVTVSS | high polyreactivity |
| QVQLVDSGGGLVQAGGSLRLSCAASGSTIPNYAMGWYRQAPGKERELVADIDSSGGSTYYADSVKGRFTISRDNAKNTVYLQMNSLKPEDTAVYYCAAGYFWYDVLNSRVLVWNNYWGQGTQVTVSS | high polyreactivity |
| QVQLVESGGGLVQAGGSLRLSCAASGLTFTKYAMGWYRKAPGKEREFVASISWNGGDTYADSVKGRFTISRDNAKNTVYLQMNSLKPEDTAVYYCAARRTQQKVYYWGQGTQVTVSS | high polyreactivity |
| QVQLVESGRGLVQAGGSLRLRCASSGRTFSSYAMGWSRQAPGKARELVAAITKRGGNTYYADSVKGRFTISRDNAKNTVYLQMNSLNPEDTAVYYCAAGWERFRNYNYWGQVTQVTVSS | high polyreactivity |
| QVQLVESGGGLVQAGGSLRLSCAASGFIFHRYAMGWYRQAPGKERELVATITASGGSTYYADSVKGRFTISRDNAKNTVYLQMNSLKPEDTAVYYCAAGSFSRGRRTRQYNFDYWGQGTQVTVSS | high polyreactivity |
| QVQLVESGGGLVLAGGSLRLSCAASGRTFKKYAMGWYRQAPGKVRELVAAITSGGSTYYADSVKGRFTISRDNAKNTVYLQMNSLKPEDTAVYYCAAASSQHGNTYYYWGQATQVTVSS | high polyreactivity |
| QVQLVESCGGLVQAGGSLRLSCAASGFIFFANTMGWYRQAPGKERELVAAITSDGSTYYADSVKGRFTISRDNAKNTVYLQMNSLKPEDTAVYYCNAQSNYADLAYWNDYWGQGTKVTVSS | low polyreactivity |

| Sequence | polyreactivity (PSR sort gate) |
| --- | --- |
| QVQHVESGGGLVQAGGSLRLSCASSGRTFYEYAMGWYRQAPGKERELVAGITSGGSTNYADSVKGRFTISRDNAKNTVYLQMNSLKPEDTAVYYCAASYWGYEYDYWGQGTQVTVSS | low polyreactivity |
| QVQLEESGGGLVQAGGRLRLSCAASGSIFDLNAMGRYRQAPGKERELVAAISQRGTRTYYADSVKGRFTISRDNAKNNVYLQMNSLIPEDTAVYYCAVGNGLSRYVYGDYEYWGQGTQVTVSS | high polyreactivity |
| QVQLVESGGGLVQAGGSLRLSCAASGSIFYGYDMGWYRQAPGKERELVATISWSSGSSTYYADSVKGRFTISRDNAKNTVYLQMNSLKPEDTAVYYCAVDFAIGYRYLGRVDYWGQGTQVTVSS | low polyreactivity |
| QVQLVETGGGLVQAGGILRLSCAASGLIFTGNVMGWYRQAPGKESELVAAISRSGGRTYYADSVKGRFTISRDNAKNTVYLQMNSLKPEDTAVYYCNKVSPERVYYGSYFRYYYWGQGTQVTVSS | high polyreactivity |
| QVQLVESGGGLVQAGGSLRLSCSASGLIYYYYTMGWYRPPPGKERELVAVISSSGGSTYYADSVKGRFTISRDNAKNTVYLQMNSLKPEDTAVYYCAAVYHFQYGAYDYWGQGTQGTVSS | high polyreactivity |
| QVQLVESGGGLVQAGGSLRLSCAASGSTFYTNAMGLYRQAPGKERELVAAISWSAGSTYYADSVKGRFTISRDNAKNTVYLQMNSLKPEDTAVYYCAAYYWYKWGYKYGYWGQGTQVTVSS | high polyreactivity |
| QVQLVESGGGLVQAGGSLRLSCAASGLTFSKYVMGWYRQAPGKERELVAAITWSGGRTYYADSVKGRFTISRDNAKNTVYLLMNSLKPEDTAVYYCNRKLKGLGYEYDYWGQGTQVTVSS | high polyreactivity |
| QVQLVESGGGLVQAGGSLRLSCAASGRIFGGYAMGWYRQAPGKERELVAVITDGGSTNYADSVKGRFTISRDNAKNTVYLQMNSLKPEDTAVYYCAADSYGDEPPYDYWGQGTQVTVSS | low polyreactivity |
| QVQLVESGGCLVQAGGSLSLSCAASGRIFGAYAMGWYRQAPGTERELVAAISSGGSTYYADSVKGRFTISRDNAKNTVYLQMNSLKPEDTAVYYCAASSGNGYGYWGQGTQVTVSS | high polyreactivity |
| QVQLVESGGGLVQAGGSLRLSCAASGGTFYVNDMGWYRQAPGKERELVATITYSGTSTYYADSVKGRFTISRDNAKNTVYLQMNSLKAEDTAVYYCATDVLLYFEPVNLDYWGQGTQVTVSS | low polyreactivity |
| QDQLVESGGGLVQAGGSLRLSCAASGRTFYRYTMGWYRQAPGKESELVAGISWRGGTTYYADSVKGRFTISRDNAKNTVYLQMNSLKPEDTAVYYCAAKAGYRYGSLAYYKYDYWGQGTQVTVSS | high polyreactivity |
| QVQLVESGGGLVQAGGSLRISCAASGRTVAIYAMGWYIKAPGKEREFVAAISWSGGDTYYADSVKGRFTISRDNAKNTVYLQMNSLKPVDPAVYYCAARDNDYEGRDLQYELDYWGQGTQVTVSS | low polyreactivity |
| QVQLVESGGGLVQAGGSLRLSCAASGSTIRYYAMGWYRQAPGKERELVAAITSSGTSTYYADSVKGRFTISRDNAKNTVDLQMNRLKPEDTAVYYCAARPVYKWVSSRYDYWGQGTQVTVSS | low polyreactivity |
| QVQLVESGGGLVQAGGTLRLSCAASGSIFYRYDMGWYRPAPGKERELVAAITWSGGSTYYADSVKGRFTISRDNAKNTVYLQMNSLKPEDTAVYYCNAPGDGYLYDHTYDYWGQGTQVTVSS | low polyreactivity |
| QVQLVESGGGLVLAGGSLRLSCAASGSTFGGYAMGWYRQATGKERELVAAISGSGVRTYYADSVKGRFTISRDNAKNTVYLQMNSRKPEDTAVYYCAKRVRYPGDRYYYWGQGTQVTVSS | high polyreactivity |
